Reference: patent publication US20250084176A1 (F STAR BETA, published 2025)

T1: human OX40 (human, UniProt P43489 29-216, limits assumed)
T1 sequence (looked up): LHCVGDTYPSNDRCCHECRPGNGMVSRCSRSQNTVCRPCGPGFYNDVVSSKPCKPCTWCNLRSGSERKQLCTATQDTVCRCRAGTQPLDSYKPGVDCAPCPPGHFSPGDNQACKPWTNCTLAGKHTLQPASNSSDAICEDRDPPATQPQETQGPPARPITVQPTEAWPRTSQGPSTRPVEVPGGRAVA

T2: human GITR (human, UniProt Q9Y5U5 26-161, limits assumed)
T2 sequence (looked up): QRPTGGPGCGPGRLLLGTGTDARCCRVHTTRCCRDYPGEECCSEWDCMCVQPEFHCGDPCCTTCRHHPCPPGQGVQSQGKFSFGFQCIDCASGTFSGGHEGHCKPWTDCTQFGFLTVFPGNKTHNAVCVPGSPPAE

T3: cCD137-mFc-Avi (cynomolgus; mouse, one biotin on the Avi sequence of each monomer (BirA); unbiotinylated in the SPR of Example 5.6)
T3 construct: also called cyno CD137-mFc-Avi; dimeric cynomolgus CD137; not shown: mouse IgG2a Fc domain (mIgG2a Fc)
T3 chain: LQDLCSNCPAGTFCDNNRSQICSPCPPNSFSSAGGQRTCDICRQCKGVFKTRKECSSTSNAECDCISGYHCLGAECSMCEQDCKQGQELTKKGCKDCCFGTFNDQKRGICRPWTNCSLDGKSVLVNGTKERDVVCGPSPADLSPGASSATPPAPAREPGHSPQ


Key:
[1] = target: human CD137, full length, on cells (human, UniProt Q07011 24-255); experiment: cell-based or functional assay
human CD40 = human CD40 (human, UniProt P25942 21-193); experiment: SPR (Biacore T200), receptor amine-coupled to CM5 chip
Procedure: (§1) The specificity of the anti-human CD137 Fcabs for human CD137 compared to other related TNFSFR family members was tested. 8 of the Fcabs were tested in mock mAb² (HeID1.3) format and measured by SPR in a Biacore T200 (GE Healthcare) by testing for binding to other human TNFRSF receptors: CD40, OX40 and GITR. Amine coupling (amine coupling kit, GE Healthcare, BR-1000-50) was used to coat human CD40, GITR and OX40 to approximately 1000 RU in Biacore CM5 chips (GE Healthcare, cat no 29149603). […] The chip was regenerated by injection of 10 mM glycine pH 2.5 for 12 s at 30 μl/min. Antibodies specific to the different TNFRSF members were used as positive controls to verify Biacore chip coating. Data was double reference subtracted and analysed using BIAevaluation 3.2 software.

human OX40 = target: T1, human OX40; experiment: as above
Procedure: as §1

human GITR = target: T2, human GITR; experiment: as above
Procedure: as §1

hCD137-mFc-Avi = target: T4, hCD137-mFc-Avi (human; mouse, UniProt Q07011 24-186, one biotin on the Avi sequence of each monomer (BirA); unbiotinylated in the SPR of Example 5.6); experiment: SPR (Biacore), mAb2 captured by anti-human Fab, antigen in solution, 1:1 Langmuir
T4 construct: Made in-house in HEK293-6E; also called human CD137-mFc-Avi; dimeric human CD137; not shown: mouse IgG2a Fc domain (mIgG2a Fc)
Procedure: (§2) An anti-human Fab capture antibody was immobilised on all four flow cells of a CM5 series S chip (GE Healthcare #BR-1005-30) to an average surface density of 6000 RU following the manufacturer's recommendations (GE Healthcare, human Fab capture Kit, #28958325). IEach mAb² was captured to approximately 150 RU by injecting a 3 μg/ml solution of mAb² diluted in HBS-EP+ buffer (GE Healthcare #BR1006-69) for 60 seconds at 30 μl/min. Then different concentrations of human, cyno or mouse CD137 antigen (unbiotinylated human, cyno or mouse CD137-mFc-Avi or human CD137-Avi-His) in HBS-EP+ buffer were flowed over the chip for 3 min at 60 μl/min and then allowed to dissociate for 10 minutes. After each antigen concentration the chip was regenerated by infecting 10 mM glycine pH 2.1 at a flow rate of 30 μl/min for 30 seconds. Buffer HBS-EP+ was injected before the highest concentration of antigen and after the lowest concentration of antigen for reference subtraction, and one of the concentrations at random was repeated twice. The binding kinetics were fit with a 1:1 Langmuir model to generate equilibrium binding constants (KD) for each sample. Data analysis was performed with BiaEvaluation software version 3.2.

hCD137-Avi-His = target: T5, hCD137-Avi-His (human, UniProt Q07011 24-186, single biotin on the Avi sequence (BirA); unbiotinylated in the SPR of Example 5.6); experiment: as above
T5 construct: also called human CD137-Avi-His; monomeric human CD137
Procedure: as §2

cCD137-mFc-Avi = target: T3, cCD137-mFc-Avi; experiment: as above
Procedure: as §2

Chain of human CD40 (P25942 21-193 limits assumed): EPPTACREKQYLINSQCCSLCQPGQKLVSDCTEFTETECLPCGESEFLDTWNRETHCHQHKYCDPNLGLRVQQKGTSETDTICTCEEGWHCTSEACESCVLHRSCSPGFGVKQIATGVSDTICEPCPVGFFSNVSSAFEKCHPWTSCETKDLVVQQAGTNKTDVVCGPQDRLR
Chain of human CD137, full length, on cells (Q07011 24-255): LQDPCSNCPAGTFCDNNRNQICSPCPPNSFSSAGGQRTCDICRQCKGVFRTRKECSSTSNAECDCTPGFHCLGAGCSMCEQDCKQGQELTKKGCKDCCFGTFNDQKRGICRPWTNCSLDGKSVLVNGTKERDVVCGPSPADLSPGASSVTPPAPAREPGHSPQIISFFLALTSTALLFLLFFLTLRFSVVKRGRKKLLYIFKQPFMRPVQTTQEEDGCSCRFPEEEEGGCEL
T5 sequence (Q07011 24-186): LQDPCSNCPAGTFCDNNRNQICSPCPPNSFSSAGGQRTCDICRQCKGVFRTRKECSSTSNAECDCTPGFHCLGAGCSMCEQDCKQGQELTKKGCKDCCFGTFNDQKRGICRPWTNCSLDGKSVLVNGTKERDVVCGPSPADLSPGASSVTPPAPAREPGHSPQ
T4 sequence (Q07011 24-186): as above

Row | Binder | NF-kB signalling, HEK.FRT.luc.hCD137, +XL (EC50 nM) [1] [nM] | binding result (human CD40) | binding result (human OX40) | binding result (human GITR) | Kd (hCD137-mFc-Avi) [nM] | Human monomeric CD137 KD fold difference relative to human dimeric KD (hCD137-Avi-His) [fold] | Kd (cCD137-mFc-Avi) [nM]
1 | FS22-053-008/HelD1.3 (bispecific antibody, human IgG1, kappa, Mock mAb^2, IgG1 without LALA; also called FS22-053-008/HeID1.3) heavy: QVQLQESGPGLVRPSQTLSLTCTVSGSTFSGYGVNWVRQPPGRGLEWIGMIWGDGNTDYNSALKSRVTMLVDTSKNQFSLRLSSVTAADTAVYYCARERDYRLDYWGQGSLVTVSSASTKGPSVFPLAPSSKSTSGGTAALGCLVKDYFPEPVTVSWNSGALTSGVHTFPAVLQSSGLYSLSSVVTVPSSSLGTQTYICNVNHKPSNTKVDKKVEPKSCDKTHTCPPCPAPELLGGPSVFLFPPKPKDTLMISRTPEVTCVVVDVSHEDPEVKFNWYVDGVEVHNAKTKPREEQYNSTYRVVSVLTVLHQDWLNGKEYKCKVSNKALPAPIEKTISKAKGQPREPQVYTLPPSRDELNPPYLFSNQVSLTCLVKGFYPSDIAVEWESNGQPENNYKTTPPVLDSDGSFFLYSKLTVDYWRWLEGNVFSCSVMHEALHNHYTQKSLSLSPG light: DIQMTQSPASLSASVGETVTITCRASGNIHNYLAWYQQKQGKSPQLLVYNAKTLADGVPSRFSGSGSGTQYSLKINSLQPEDFGSYYCQHFWSTPRTFGGGTKLEIKRTVAAPSVFIFPPSDEQLKSGTASVVCLLNNFYPREAKVQWKVDNALQSGNSQESVTEQDSKDSTYSLSSTLTLSKADYEKHKVYACEVTHQGLSSPVTKSFNRGEC | 26.3 | no binding (tested: starting at 1 µM) | no binding (tested: starting at 1 µM) | no binding (tested: starting at 1 µM) | 4.2 | 170 | 0.9
2 | FS22-053-012/HelD1.3 (bispecific antibody, human IgG1, kappa, Mock mAb^2, IgG1 without LALA; also called FS22-053-012/HeID1.3) heavy: QVQLQESGPGLVRPSQTLSLTCTVSGSTFSGYGVNWVRQPPGRGLEWIGMIWGDGNTDYNSALKSRVTMLVDTSKNQFSLRLSSVTAADTAVYYCARERDYRLDYWGQGSLVTVSSASTKGPSVFPLAPSSKSTSGGTAALGCLVKDYFPEPVTVSWNSGALTSGVHTFPAVLQSSGLYSLSSVVTVPSSSLGTQTYICNVNHKPSNTKVDKKVEPKSCDKTHTCPPCPAPELLGGPSVFLFPPKPKDTLMISRTPEVTCVVVDVSHEDPEVKFNWYVDGVEVHNAKTKPREEQYNSTYRVVSVLTVLHQDWLNGKEYKCKVSNKALPAPIEKTISKAKGQPREPQVYTLPPSRDELNPPYLFSNQVSLTCLVKGFYPSDIAVEWESNGQPENNYKTTPPVLDSDGSFFLYSKLTVDHMRWLEGNVFSCSVMHEALHNHYTQKSLSLSPG light: DIQMTQSPASLSASVGETVTITCRASGNIHNYLAWYQQKQGKSPQLLVYNAKTLADGVPSRFSGSGSGTQYSLKINSLQPEDFGSYYCQHFWSTPRTFGGGTKLEIKRTVAAPSVFIFPPSDEQLKSGTASVVCLLNNFYPREAKVQWKVDNALQSGNSQESVTEQDSKDSTYSLSSTLTLSKADYEKHKVYACEVTHQGLSSPVTKSFNRGEC | 119 | no binding (tested: starting at 1 µM) | no binding (tested: starting at 1 µM) | no binding (tested: starting at 1 µM) |  |  | 
3 | FS22-053-011/HelD1.3 (bispecific antibody, human IgG1, kappa, Mock mAb^2, IgG1 without LALA; also called FS22-053-011/HeID1.3) heavy: QVQLQESGPGLVRPSQTLSLTCTVSGSTFSGYGVNWVRQPPGRGLEWIGMIWGDGNTDYNSALKSRVTMLVDTSKNQFSLRLSSVTAADTAVYYCARERDYRLDYWGQGSLVTVSSASTKGPSVFPLAPSSKSTSGGTAALGCLVKDYFPEPVTVSWNSGALTSGVHTFPAVLQSSGLYSLSSVVTVPSSSLGTQTYICNVNHKPSNTKVDKKVEPKSCDKTHTCPPCPAPELLGGPSVFLFPPKPKDTLMISRTPEVTCVVVDVSHEDPEVKFNWYVDGVEVHNAKTKPREEQYNSTYRVVSVLTVLHQDWLNGKEYKCKVSNKALPAPIEKTISKAKGQPREPQVYTLPPSRDELNPPYLFSNQVSLTCLVKGFYPSDIAVEWESNGQPENNYKTTPPVLDSDGSFFLYSKLTVDYWRWTDGNVFSCSVMHEALHNHYTQKSLSLSPG light: DIQMTQSPASLSASVGETVTITCRASGNIHNYLAWYQQKQGKSPQLLVYNAKTLADGVPSRFSGSGSGTQYSLKINSLQPEDFGSYYCQHFWSTPRTFGGGTKLEIKRTVAAPSVFIFPPSDEQLKSGTASVVCLLNNFYPREAKVQWKVDNALQSGNSQESVTEQDSKDSTYSLSSTLTLSKADYEKHKVYACEVTHQGLSSPVTKSFNRGEC | 32.8 | no binding (tested: starting at 1 µM) | no binding (tested: starting at 1 µM) | no binding (tested: starting at 1 µM) | 5.5 | > 200 | 1.3
4 | FS22-172-003/HelD1.3 (bispecific antibody, human IgG1, kappa, Mock mAb^2, IgG1 without LALA) heavy: QVQLQESGPGLVRPSQTLSLTCTVSGSTFSGYGVNWVRQPPGRGLEWIGMIWGDGNTDYNSALKSRVTMLVDTSKNQFSLRLSSVTAADTAVYYCARERDYRLDYWGQGSLVTVSSASTKGPSVFPLAPSSKSTSGGTAALGCLVKDYFPEPVTVSWNSGALTSGVHTFPAVLQSSGLYSLSSVVTVPSSSLGTQTYICNVNHKPSNTKVDKKVEPKSCDKTHTCPPCPAPELLGGPSVFLFPPKPKDTLMISRTPEVTCVVVDVSHEDPEVKFNWYVDGVEVHNAKTKPREEQYNSTYRVVSVLTVLHQDWLNGKEYKCKVSNKALPAPIEKTISKAKGQPREPQVYTLPPSRDELPYIIPPYNQVSLTCLVKGFYPSDIAVEWESNGQPENNYKTTPPVLDSDGSFFLYSKLTVGADRWLEGNVFSCSVMHEALHNHYTQKSLSLSPG light: DIQMTQSPASLSASVGETVTITCRASGNIHNYLAWYQQKQGKSPQLLVYNAKTLADGVPSRFSGSGSGTQYSLKINSLQPEDFGSYYCQHFWSTPRTFGGGTKLEIKRTVAAPSVFIFPPSDEQLKSGTASVVCLLNNFYPREAKVQWKVDNALQSGNSQESVTEQDSKDSTYSLSSTLTLSKADYEKHKVYACEVTHQGLSSPVTKSFNRGEC | 32.6 | no binding (tested: starting at 1 µM) | no binding (tested: starting at 1 µM) | no binding (tested: starting at 1 µM) | 1.5 | > 200 | 1.3
